# Results published in patent US20250163164A1 (LANOVA MEDICINES DEVELOPMENT, published 2025).
# Residue numbers refer to the chain shown, from its start.
# T1: human interleukin 13 receptor subunit alpha 2 (IL-13RA2) (human, UniProt Q14627 27-380)
# T1 construct: whole, on cells; also called IL-13Rα2; CD213A2
# T1 sequence (looked up): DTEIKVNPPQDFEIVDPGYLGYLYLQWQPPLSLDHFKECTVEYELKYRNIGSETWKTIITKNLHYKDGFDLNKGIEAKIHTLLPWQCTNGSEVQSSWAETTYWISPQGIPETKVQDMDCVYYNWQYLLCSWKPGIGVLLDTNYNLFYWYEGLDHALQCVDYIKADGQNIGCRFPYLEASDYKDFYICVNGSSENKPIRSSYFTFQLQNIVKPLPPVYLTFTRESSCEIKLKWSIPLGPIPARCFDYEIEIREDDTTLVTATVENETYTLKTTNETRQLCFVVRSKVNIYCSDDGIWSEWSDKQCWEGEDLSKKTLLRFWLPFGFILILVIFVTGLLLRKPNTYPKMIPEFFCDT
# B1: 73A11E2 (antibody, V domains shown)
# VH: EVKLVESGGGLVKPGGSLKLSCAASGFTFSSYGMSWVRQTPEKRLEWVATISGGGSYTYYPDSVKGRFTISRDNARNNLYLQMNSLRSEDTALYYCARRDLRSAMDYWGQGTSVTVSS
# VL: DIVMTQSQKFMSTSVGDRVSVTCKASQNVDINVAWYQQKPGQSPKALIYSASYRYSGVPDRFTGSGSGTDFTLTISNVQSEDLAEFFCQQYNSYPLTFGGGTKLEIK
# notes: purified mouse antibody
# B2: 74B5E4 (antibody, V domains shown)
# VH: B1 VH with K19R, S31T, R76K, N84S
# VL: B1 VL with F86Y, S93T
# notes: purified mouse antibody
# B3: 72B4H4 (antibody, V domains shown)
# VH: QVQLQQPGAERVRPGASVKLSCKASGYTFTNYWMNWVKQRPEQGLEWIGRIDPYAGETHYNQKFKDKAILTVDKSSSTAYMQLRSLTSEDSAVYYCARGYGDSYGMDHWGQGTSVTVSS
# VL: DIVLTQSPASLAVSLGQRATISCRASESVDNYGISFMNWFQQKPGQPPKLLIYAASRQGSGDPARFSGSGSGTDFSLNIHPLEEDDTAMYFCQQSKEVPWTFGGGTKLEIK
# notes: purified mouse antibody
# B4: 51G2B3 (antibody, V domains shown)
# VH: QVQLQQSGPELVKPGASVKISCKASGYAFSDSWMNWVKQRPGQGLEWIGRIYPGDGDTNYNGKFKGKATLTADKSSNTAYMQLSSLTSVDSAVYFCARSWNGSPWFPYWGQGTLVTVSA
# VL: DVLMTQTPLSLPVSLGDQASISCRSSQTIAHRNGNTYLEWYLQKPGQSPKLLLYKVSNRFSGVPDRFSGSGSGTDFTLKISRVEAEDLGVYYCFQGSHVTWTFGGGTKLEIK
# notes: purified mouse antibody
# B5: 24G6D5 (antibody, V domains shown)
# VH: QVQLQQSGPELVKPGTSVKMSCKASGYTFTSNYIHWVKQRPGQGLEWIGWIYPGDGSIKYNEKFKGKTTLTADKSSSTVYMLLSSLTSEDSAIYFCAVLRRLDYWGQGTTLTVSS
# VL: DIVLTQSPATLSVTPGDSVSLSCRASQSISNNLHWYQQKSHESPRLLIKYASQSISGIPSRFSGSGSGTDFTLSINSVETEDFGMYFCQQSNSWPLTFGAGTKLELK
# notes: purified mouse antibody
# B6: 62F6A8 (antibody, V domains shown)
# VH: QVQIQQSGAELARPGASVMLSCKASGYTFTDYWMQWIKQRPGQGLEGIGAIYPGDGDTAYNQKFRGKATLTADKSSSTAYMQLNSLASEDSAVYFCARGATLLRPFPFWGQGTLVTVSA
# VL: DIVMTQSHKFMSTSVGDRVSITCKASQDVSTAVAWYQQKPGQSPKLLIYSASYRYAGVPDRFTGSGSGTDFTFTISSVQAEDLAVYSCQQHYSIPPTFGGGTKLEIK
# notes: purified mouse antibody
# B7: 61H8C1 (antibody, V domains shown)
# VH: B6 VH with I4L, D31S, M34T, G56D, A59S, R65K, A87T, F95Y, F108Y
# VL: B6 VL with A56T
# notes: purified mouse antibody
# B8: 57F8H3F1 (antibody, V domains shown)
# VH: QVQLQQPGAELVRPGASVKLSCKASGYTFTNYWMNWIKQRPEQGLEWIGRIDPYETETHYNQKFRDRAILTVDKSSSTAFMQLSGLTSEDSAVYYCARGYGHYYGVDYWGQGTSVTVSS
# VL: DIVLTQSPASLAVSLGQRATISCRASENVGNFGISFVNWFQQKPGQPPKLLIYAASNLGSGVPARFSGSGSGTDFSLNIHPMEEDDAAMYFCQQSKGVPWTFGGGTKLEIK
# notes: purified mouse antibody
# B9: 34A5G9 (antibody, V domains shown)
# VH: EVHLQQSGPELVKPGASVKISCKTSGYTFTEYTMHWVKQSHGKSLEWIGRINPNNGIAEYKQTFKDKATLAVDKSSSTAYMEFRSLTSEDSAVYYCARGEGYGYWFAYWGQGTLVTVSA
# VL: DIQMTQSPASLSASVGETVTITCRTSDNIYSYLAWYQQRQGKSPQLLVSNARTLAEGVPSRFSGSGSGTQFSLKINSLQPEDFGIYYCQHHSGTPFTFGSGTNLEIE
# notes: purified mouse antibody
# B10: xi62A8D8 hIgG1 (antibody, V domains shown)
# VH: B1 VH with R76K, N84S
# VL: B1 VL with S93N
# B11: xi74B5E4 hIgG1 (antibody, V domains shown)
# VH: B1 VH with K19R, S31T, R76K, N84S
# VL: B1 VL with F86Y, S93T
# B12: xi54A4F7 hIgG1 (antibody, V domains shown)
# VH: B1 VH with R76K, N84S, Y107H
# VL: B1 VL with K24R, A46S, F86Y, K107R
# B13: xi51G2B3 hIgG1 (antibody, V domains shown)
# VH: B4 VH
# VL: B4 VL
# B14: xi24G6D5 hIgG1 (antibody, V domains shown)
# VH: B5 VH
# VL: B5 VL
# B15: xi62F6A8 hIgG1 (antibody, V domains shown)
# VH: B6 VH
# VL: B6 VL
# B16: xi34A5G9 hIgG1 (antibody, V domains shown)
# VH: B9 VH
# VL: B9 VL
# Target: T1, human interleukin 13 receptor subunit …
# Test: FACS on A375 cells
# Protocol: (§1) A375 cells that endogenously expressed IL-13RA2 were harvested from flasks. 100 μl of 1×10⁶ cells/ml of cells were incubated with primary antibodies in 4-fold serial dilutions starting from 100 nM to 0.006 nM for 30 minutes on ice. After being washed with 200 μl of FACS buffer twice, cells were incubated with secondary antibody for 30 minutes on ice. Cells were washed with 200 μl of FACS buffer twice and analyzed by FACS.
EC50 [pM],Top (MFI),Binder
710,223000,B1
600,268000,B2
760,262000,B3
870,243000,B4
680,226000,B5
680,217000,B6
410,203000,B7
700,246000,B8
670,248000,B9

# Target: T1, human interleukin 13 receptor subunit …
# Test: cell-based or functional assay
"internalization EC50 (pHAb dye), A375 cells [nM]","internalization EC50 (pHAb dye), CHO-K1/H_IL-13RA2 cells [nM]","internalization EC50 (pHAb dye), HEK-293/H IL-13RA2 cells [nM]","internalization Top (MFI), A375 cells [MFI]","internalization Top (MFI), CHO-K1/H_IL-13RA2 cells [MFI]","internalization Top (MFI), HEK-293/H IL-13RA2 cells [MFI]",Binder
1,1.58,1.88,5550,17200,23300,B10
~0.437,0.91,1.31,5170,17700,21600,B11
0.66,1.42,1.65,5500,18000,22800,B12
1.32,1.84,3.84,6380,17100,28900,B13
0.61,0.86,2.76,4110,12700,23700,B14
~0.447,1.17,1.73,4530,15900,22300,B15
3.63,1.38,1.78,8610,13900,25700,B16

# Target: T1, human interleukin 13 receptor subunit …
# Test: FACS on A375 cells
# Remark: another data set of the same source
# Protocol: as §1, with “expressed IL-13RA2,” for “expressed IL-13RA2”, “primary chimeric” for “primary”, “in 3-fold” for “in 4-fold”, “from 300” for “from 100”, “to 0.002” for “to 0.006”
# As shown in FIG. 3 and Table 4, the chimeric antibodies bound to human IL-13RA2 at different EC50.
EC50 [pM],Top (MFI),Binder
820,17300,B10
700,18100,B11
630,18000,B12
640,15500,B13
880,15200,B14
480,15800,B15
260,16700,B16
